Laboratory results taken from article PMC10930109.

Molecular target: Envelope (E) protein of tick-borne encephalitis virus strain Sofjin-Chumakov (Far-Eastern subtype), (Tick-borne encephalitis virus, strain Sofjin-Chumakov) (UniProt P07720)
Experiment: cryo-EM structure

**Q.** With “Envelope (E) protein of tick-borne encephalitis virus strain Sofjin-Chumakov (Far-Eastern subtype), (from UniProt P07720) (natural protein)” as the substance, how does the stoichiometry N read?
**A.** 2
